How the values were obtained:
Experiment in all cases: SPR
[1] = target: A2 with residue 4 substituted with alanine (UniProt Q13501)
[2] = target: A2 with residue 9 substituted with alanine (UniProt Q13501)
M6 = target: M6
M2 = target: M2
M10 = target: M10
M11 = target: M11
A2 = A2 (UniProt Q13501)
M1 = target: M1
[3] = target: A2 with residue 7 substituted with alanine (UniProt Q13501)
[4] = target: A2 with residue 3 substituted with alanine (UniProt Q13501)
M5 = target: M5

B1: purified TRB3 protein (natural protein)
chain: MRATPLAAPAGSLSRKKRLELDDNLDTERPVQKRARSGPQPRLPPCLLPLSPPTAPDRATAVATASRLGPYVLLEPEEGGRAYQALHCPTGTEYTCKVYPVQEALAVLEPYARLPPHKHVARPTEVLAGTQLLYAFFTRTHGDMHSLVRSRHRIPEPEAAVLFRQMATALAHCHQHGLVLRDLKLCRFVFADRERKKLVLENLEDSCVLTGPDDSLWDKHACPAYVGPEILSSRASYSGKAADVWSLGVALFTMLAGHYPFQDSEPVLLFGKIRRGAYALPAGLSAPARCLVRCLLRREPAERLTATGILLHPWLRQDPMPLAPTRSHLWEAAQVVPDGLGLDEAREEEGDREVVLYG
Work on B1 yielded a Kd [1] of 4320 nM, a Kd [2] of 35600 nM and a Kd (M6) of 0.142 nM. The Kd (M2) was 402 nM, the Kd (M10) was 381 nM and the Kd (M11) was 73.1 nM. The Kd (A2) was 10.2 nM, the Kd (M1) was 1640 nM and the Kd [3] was 11800 nM. The Kd [4] was 3590 nM and the Kd (M5) was 110 nM.

— paper PMC4557121 (2015)
